Assay [1] addresses T1, PDL1-Fc fusion protein (human, UniProt Q9NZQ7 19-238, limits assumed).
T1 construct: Transiently expressed in HEK293 and used as the plate coat in the ELISAs; not shown: Fc part
Nature of the assay: ELISA, plate coated with PDL1-Fc 0.5 ug/well, detection anti-his-HRP, OD405, 4-parameter fit (Plot1; same fit values as in Figure 2). Here is the method: (§1) The PDL1-Fc fusion protein was transiently expressed by HEK293 and purified by nickel column affinity chromatography. […] After washing, the anti-his horseradish peroxidase labeled antibody was added and incubated at room temperature for 1 hour. After washing, the developing solution was added, and the absorption value was read at wavelength of 405 nm. Application software SotfMaxPro v5.4 is used for data processing and mapping analysis.

The target in assay [2] is T1, PDL1-Fc fusion protein. The assay is described as follows: ELISA, plate coated with PDL1-Fc 0.5 ug/well, detection anti-his-HRP, OD405, 4-parameter fit (Plot2). The procedure: as §1
(In general: In an ELISA, binding on a coated surface is turned into a signal by an enzyme label.)

In assay [3] the target is PD-L1 target protein (Biacore ligand) (UniProt Q9NZQ7 19-238, limits assumed). The assay is described as follows: SPR (Biacore T200), 25 C, 109 as analyte at 3.125-200 ng/ml. The procedure:
The experimental temperature of Biacore was 25° C. and the injection flow rate was 50 μl/min. The analyte was diluted with the HBS-EP+ buffer to a certain concentration, and was allowed to flow through the blank reference channel and the activated channel in turn. The signal value generated on the blank reference channel reflects the non-specific adsorption of the analyte on the chip, and the signal value generated on the activated channel reflects the specific binding between the analyte and the ligand. The analyte was introduced for 300 s, and then the HBS-EP+ buffer was introduced for 180 s to dissociate the analyte from the ligand. […] Different concentrations of analytes are repeatedly introduced and dissociated.
Background: In SPR one partner is held on a chip, and binding of the other changes the refractive index at the surface.

The record followed here is US20210253709A1 (SUZHOU SMARTNUCLIDE BIOPHARMACEUTICAL, published 2021).

Sequence of PD-L1 target protein (Biacore ligand) (Q9NZQ7 19-238 limits assumed): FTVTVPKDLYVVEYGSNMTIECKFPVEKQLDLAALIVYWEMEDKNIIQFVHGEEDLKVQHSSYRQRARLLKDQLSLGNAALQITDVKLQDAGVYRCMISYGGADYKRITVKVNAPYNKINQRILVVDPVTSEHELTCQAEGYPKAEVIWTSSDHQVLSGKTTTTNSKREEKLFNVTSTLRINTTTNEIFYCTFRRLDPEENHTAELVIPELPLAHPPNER
T1 sequence (Q9NZQ7 19-238 limits assumed): as above

B1: 109-chis (VHH)
VHH: QVQLQESGGGSVQAGGSLRLSCTASGFSLDDSDMGWYRQARGNVCQLVSTIASDRSTYYTPSVKGRFTISHDRAKNTIYLQMNSLKPEDTAVYYCAAAPRLAYTTAMTCEGDFAYWGQGTQVTVSS
As a reminder, the EC50 is the concentration at which the effect is half-maximal. A lower EC50 goes with greater potency. In the assay with PDL1-Fc fusion protein [1], B1 showed a concentration giving a half-maximal response (EC50) of 2.89 ng/mL.

B2: ^69,71Ga-NOTA-109-chis (VHH)
VHH: QVQLQESGGGSVQAGGSLRLSCTASGFSLDDSDMGWYRQARGNVCQLVSTIASDRSTYYTPSVKGRFTISHDRAKNTIYLQMNSLKPEDTAVYYCAAAPRLAYTTAMTCEGDFAYWGQGTQVTVSS
modifications: one or two NOTA groups (from p-SCN-Bn-NOTA) conjugated per molecule, each chelating ^69,71Ga; conjugated lysines not assigned
notes: also called chelated products of PD-L1 single domain antibody protein
In the assay with PDL1-Fc fusion protein [2], B2 had an EC50 of 3.62 ng/mL.

B3: 109 heavy-chain single domain antibody (VHH)
VHH: QVQLQESGGGSVQAGGSLRLSCTASGFSLDDSDMGWYRQARGNVCQLVSTIASDRSTYYTPSVKGRFTISHDRAKNTIYLQMNSLKPEDTAVYYCAAAPRLAYTTAMTCEGDFAYWGQGTQVTVSS
notes: Untagged form
What is called Kd is the constant that tells how readily two partners part at equilibrium. Lower therefore signals a tighter complex. In general, koff refers to a measure of how fast the partners let go of each other. High values mean fast dissociation, low ones slow dissociation. The kon is the second-order rate constant of association. High values mean fast association, low ones slow association. As to B3, in assay [3], the Kd is 1.73 nM, the koff was determined as 0.000438 s⁻¹ and the on-rate constant (kon) was 253000 M⁻¹ s⁻¹.
